Biological target: T1, polypeptide complex 1 (PC-1)
T1 construct: also called Intact PC-1; uncleaved PC-1
Test: ELISA ('Cyno Albumin ELISA')

B1: cynomolgus monkey albumin (other)
chain: DTHKSEVAHRFKDLGEEHFKGLVLVAFSQYLQQCPFEEHVKLVNEVTEFAKTCVADESAENCDKSLHTLFGDKLCTVATLRETYGEMADCCAKQEPERNECFLQHKDDNPNLPPLVRPEVDVMCTAFHDNEATFLKKYLYEVARRHPYFYAPELLFFAARYKAAFAECCQAADKAACLLPKLDELRDEGKASSAKQRLKCASLQKFGDRAFKAWAVARLSQKFPKAEFAEVSKLVTDLTKVHTECCHGDLLECADDRADLAKYMCENQDSISSKLKECCDKPLLEKSHCLAEVENDEMPADLPSLAADYVESKDVCKNYAEAKDVFLGMFLYEYARRHPDYSVMLLLRLAKAYEATLEKCCAAADPHECYAKVFDEFQPLVEEPQNLVKQNCELFEQLGEYKFQNALLVRYTKKVPQVSTPTLVEVSRNLGKVGAKCCKLPEAKRMPCAEDYLSVVLNRLCVLHEKTPVSEKVTKCCTESLVNRRPCFSALELDEAYVPKAFNAETFTFHADMCTLSEKEKQVKKQTALVELVKHKPKATKEQLKGVMDNFAAFVEKCCKADDKEACFAEEGPKFVAASQAALA
notes: Antigen immobilized on the ELISA plate
  binding result: binds
